The values that follow come from PMC8461307, “FHR-5 Serum Levels and CFHR5 Genetic Variations in Patients With Immune Complex-Mediated Membranoproliferative Glomerulonephritis and C3-Glomerulopathy” (Frontiers in Immunology, 2021).

B1: recombinant FHR-5 G278S (natural protein, human, UniProt Q9BXR6 19-569, looked up)
chain: EGTLCDFPKIHHGFLYDEEDYNPFSQVPTGEVFYYSCEYNFVSPSKSFWTRITCTEEGWSPTPKCLRMCSFPFVKNGHSESSGLIHLEGDTVQIICNTGYSLQNNEKNISCVERGWSTPPICSFTKGECHVPILEANVDAQPKKESYKVGDVLKFSCRKNLIRVGSDSVQCYQFGWSPNFPTCKGQVRSCGPPPQLSNGEVKEIRKEEYGHNEVVEYDCNPNFIINGPKKIQCVDGEWTTLPTCVEQVKTCGYIPELEYSYVQPSVPPYQHGVSVEVNCRNEYAMIGNNMITCINGIWTELPMCVATHQLKRCKIAGVNIKTLLKLSGKEFNHNSRIRYRCSDIFRYRHSVCINGKWNPEVDCTEKREQFCPPPPQIPNAQNMTTTVNYQDGEKVAVLCKENYLLPEAKEIVCKDGRWQSLPRCVESTAYCGPPPSINNGDTTSFPLSVYPPGSTVTYRCQSFYKLQGSVTVTCRNKQWSEPPRCLDPCVVSEENMNKNNIQLKWRNDGKLYAKTGDAVEFQCKFPHKAMISSPPFRAICQEGKFEYPICE
notes: complement Factor H-related protein 5 (FHR-5), human; amplified from the wtCFHR5 vector with a mutagenic primer; numbered from the ATG translation initiation site; Same construct as m1 with the patient variation G278S
B2: recombinant wild-type Factor H-related protein 5 (FHR-5WT) (natural protein, human, UniProt Q9BXR6 19-569, looked up)
chain: EGTLCDFPKIHHGFLYDEEDYNPFSQVPTGEVFYYSCEYNFVSPSKSFWTRITCTEEGWSPTPKCLRMCSFPFVKNGHSESSGLIHLEGDTVQIICNTGYSLQNNEKNISCVERGWSTPPICSFTKGECHVPILEANVDAQPKKESYKVGDVLKFSCRKNLIRVGSDSVQCYQFGWSPNFPTCKGQVRSCGPPPQLSNGEVKEIRKEEYGHNEVVEYDCNPNFIINGPKKIQCVDGEWTTLPTCVEQVKTCGYIPELEYGYVQPSVPPYQHGVSVEVNCRNEYAMIGNNMITCINGIWTELPMCVATHQLKRCKIAGVNIKTLLKLSGKEFNHNSRIRYRCSDIFRYRHSVCINGKWNPEVDCTEKREQFCPPPPQIPNAQNMTTTVNYQDGEKVAVLCKENYLLPEAKEIVCKDGRWQSLPRCVESTAYCGPPPSINNGDTTSFPLSVYPPGSTVTYRCQSFYKLQGSVTVTCRNKQWSEPPRCLDPCVVSEENMNKNNIQLKWRNDGKLYAKTGDAVEFQCKFPHKAMISSPPFRAICQEGKFEYPICE
notes: complement Factor H-related protein 5 (FHR-5), human; variations are numbered from the ATG translation initiation site; Secreted into the Sf9 supernatant; also called wild-type FHR-5; wtCFHR5
B3: recombinant FHR-5 R356H (natural protein, human, UniProt Q9BXR6 19-569, looked up)
chain: EGTLCDFPKIHHGFLYDEEDYNPFSQVPTGEVFYYSCEYNFVSPSKSFWTRITCTEEGWSPTPKCLRMCSFPFVKNGHSESSGLIHLEGDTVQIICNTGYSLQNNEKNISCVERGWSTPPICSFTKGECHVPILEANVDAQPKKESYKVGDVLKFSCRKNLIRVGSDSVQCYQFGWSPNFPTCKGQVRSCGPPPQLSNGEVKEIRKEEYGHNEVVEYDCNPNFIINGPKKIQCVDGEWTTLPTCVEQVKTCGYIPELEYGYVQPSVPPYQHGVSVEVNCRNEYAMIGNNMITCINGIWTELPMCVATHQLKRCKIAGVNIKTLLKLSGKEFNHNSRIHYRCSDIFRYRHSVCINGKWNPEVDCTEKREQFCPPPPQIPNAQNMTTTVNYQDGEKVAVLCKENYLLPEAKEIVCKDGRWQSLPRCVESTAYCGPPPSINNGDTTSFPLSVYPPGSTVTYRCQSFYKLQGSVTVTCRNKQWSEPPRCLDPCVVSEENMNKNNIQLKWRNDGKLYAKTGDAVEFQCKFPHKAMISSPPFRAICQEGKFEYPICE
notes: complement Factor H-related protein 5 (FHR-5), human; amplified from the wtCFHR5 vector with a mutagenic primer; histidine instead of arginine at position 356, a variation found in patients; numbered from the ATG translation initiation site; Same construct as m1 with the patient variation R356H

In the experiment the target is T1, purified C3b (UniProt P01024 23-667; P01024 749-1663).
T1 construct: complement C3 beta chain, as in C3b; complement C3b alpha' chain (C3 alpha chain without C3a); also called C3b fragment; source: bought: Merck
T1 sequence (P01024 23-667, chain 1 of 2): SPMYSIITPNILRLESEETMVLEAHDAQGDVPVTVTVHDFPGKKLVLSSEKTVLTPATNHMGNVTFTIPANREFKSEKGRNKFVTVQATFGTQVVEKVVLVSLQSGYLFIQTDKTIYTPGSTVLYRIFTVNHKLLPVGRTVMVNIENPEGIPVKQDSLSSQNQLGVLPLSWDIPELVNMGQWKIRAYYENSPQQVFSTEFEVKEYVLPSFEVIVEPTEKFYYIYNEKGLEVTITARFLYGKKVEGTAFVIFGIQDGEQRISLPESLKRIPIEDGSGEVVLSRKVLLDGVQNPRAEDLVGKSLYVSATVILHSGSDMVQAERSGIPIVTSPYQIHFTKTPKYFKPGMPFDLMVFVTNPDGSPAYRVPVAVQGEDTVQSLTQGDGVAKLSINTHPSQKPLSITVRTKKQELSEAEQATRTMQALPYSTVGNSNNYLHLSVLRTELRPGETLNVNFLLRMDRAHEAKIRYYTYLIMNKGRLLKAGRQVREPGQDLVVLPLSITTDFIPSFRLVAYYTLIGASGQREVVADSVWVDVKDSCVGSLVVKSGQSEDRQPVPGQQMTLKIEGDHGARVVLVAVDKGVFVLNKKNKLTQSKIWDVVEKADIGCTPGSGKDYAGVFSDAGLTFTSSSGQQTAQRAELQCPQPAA
T1 sequence (P01024 749-1663, chain 2 of 2): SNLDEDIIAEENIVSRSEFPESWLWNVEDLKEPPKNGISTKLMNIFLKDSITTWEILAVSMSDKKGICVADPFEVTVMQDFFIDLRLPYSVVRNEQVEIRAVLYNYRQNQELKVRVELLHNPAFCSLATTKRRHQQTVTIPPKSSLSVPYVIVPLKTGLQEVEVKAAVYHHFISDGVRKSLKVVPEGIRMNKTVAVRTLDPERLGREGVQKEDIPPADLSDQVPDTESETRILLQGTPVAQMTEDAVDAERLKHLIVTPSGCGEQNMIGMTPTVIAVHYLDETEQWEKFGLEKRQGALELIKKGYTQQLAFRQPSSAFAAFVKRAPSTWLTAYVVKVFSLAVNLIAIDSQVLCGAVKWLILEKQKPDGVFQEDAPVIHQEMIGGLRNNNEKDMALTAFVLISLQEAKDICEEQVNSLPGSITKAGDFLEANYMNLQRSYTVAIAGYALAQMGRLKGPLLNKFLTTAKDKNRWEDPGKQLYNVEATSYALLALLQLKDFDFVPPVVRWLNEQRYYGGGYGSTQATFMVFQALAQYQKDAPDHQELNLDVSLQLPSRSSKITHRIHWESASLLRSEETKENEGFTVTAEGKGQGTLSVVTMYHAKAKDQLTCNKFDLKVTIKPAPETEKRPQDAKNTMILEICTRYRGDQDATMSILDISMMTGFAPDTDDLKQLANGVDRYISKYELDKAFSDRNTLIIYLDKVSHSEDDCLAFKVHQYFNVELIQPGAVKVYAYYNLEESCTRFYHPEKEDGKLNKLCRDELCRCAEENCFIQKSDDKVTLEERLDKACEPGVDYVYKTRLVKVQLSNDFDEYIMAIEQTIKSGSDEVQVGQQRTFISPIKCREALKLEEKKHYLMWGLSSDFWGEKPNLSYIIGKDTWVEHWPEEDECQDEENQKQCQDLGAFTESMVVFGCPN
Kind of experiment: SPR; ProteOn XPR36; recombinant FHR-5 variants amine-coupled on a GLC chip at 4,200-4,600 RU; C3b in serial dilutions as analyte in DPBS with 0.005% Tween-20, 50 µl/min; ovalbumin channel subtracted; bivalent analyte model, KD = kd/ka. As to conditions: both partners purified. A general note: Surface plasmon resonance follows binding to a sensor surface in real time, without labels.
For the molecule B1, the Kd was 20.5 µM. Consider B2, for which the Kd worked out at 5.26 µM. As for B3, the figure is 5.6 µM.
